# Data taken from US20190359687A1 (Bayer, published 2019).
# No end group written: not given here. *: point of attachment. Biotin = O=C1N[C@H]2[C@H](CS[C@H]2CCCCC(=O)*)N1
# T1: human glycophorin A in the red blood cell membrane (human, UniProt P02724 20-150)
# T1 construct: whole, on cells; used for intact RBC, isolated RBC membranes and transfected cells; the assay field tells which; also called GPA; hGPA
# T1 sequence (looked up): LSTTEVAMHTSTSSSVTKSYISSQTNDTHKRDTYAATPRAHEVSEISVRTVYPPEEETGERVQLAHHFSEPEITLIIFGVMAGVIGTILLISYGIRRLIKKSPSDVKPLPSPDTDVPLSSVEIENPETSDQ
# T2: GP7 (human)
# T2 peptide: Biotin-SVRTVYPP
# T3: GP10 (human)
# T3 peptide: Biotin-TVYPPEEE
# T4: GP11 (human)
# T4 peptide: Biotin-VYPPEEET
# T5: GP12 (human)
# T5 peptide: Biotin-YPPEEETG
# T6: GP13 (human)
# T6 peptide: Biotin-PPEEETGE
# T7: GP5-7 (human, biotin at the N-terminus)
# T7 construct: GP5 with alanine at position 7 (V7A), already in the entry
# T7 peptide: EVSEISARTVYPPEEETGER
# T8: GP5-8 (human, biotin at the N-terminus)
# T8 construct: GP5 with alanine at position 8 (R8A), already in the entry
# T8 peptide: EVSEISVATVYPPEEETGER
# T9: GP5-9 (human, biotin at the N-terminus)
# T9 construct: GP5 with alanine at position 9 (T9A), already in the entry
# T9 peptide: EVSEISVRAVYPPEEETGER
# T10: GP5-10 (human, biotin at the N-terminus)
# T10 construct: GP5 with alanine at position 10 (V10A), already in the entry
# T10 peptide: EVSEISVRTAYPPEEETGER
# T11: GP5-11 (human, biotin at the N-terminus)
# T11 construct: GP5 with alanine at position 11 (Y11A), already in the entry
# T11 peptide: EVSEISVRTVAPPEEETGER
# T12: GP5-12 (human, biotin at the N-terminus)
# T12 construct: GP5 with alanine at position 12 (P12A), already in the entry
# T12 peptide: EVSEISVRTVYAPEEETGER
# T13: GP5-13 (human, biotin at the N-terminus)
# T13 construct: GP5 with alanine at position 13 (P13A), already in the entry
# T13 peptide: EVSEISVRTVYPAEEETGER
# T14: GP5-14 (human, biotin at the N-terminus)
# T14 construct: GP5 with alanine at position 14 (E14A), already in the entry
# T14 peptide: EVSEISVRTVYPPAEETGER
# T15: GP5-15 (human, biotin at the N-terminus)
# T15 construct: GP5 with alanine at position 15 (E15A), already in the entry
# T15 peptide: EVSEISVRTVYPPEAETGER
# T16: GP5-16 (human, biotin at the N-terminus)
# T16 construct: GP5 with alanine at position 16 (E16A), already in the entry
# T16 peptide: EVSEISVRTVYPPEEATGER
# T17: GP5-17 (human, biotin at the N-terminus)
# T17 construct: GP5 with alanine at position 17 (T17A), already in the entry
# T17 peptide: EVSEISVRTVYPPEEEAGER
# T18: GP5-18 (human, biotin at the N-terminus)
# T18 construct: GP5 with alanine at position 18 (G18A), already in the entry
# T18 peptide: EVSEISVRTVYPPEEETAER
# T19: GP5-19 (human, biotin at the N-terminus)
# T19 construct: GP5 with alanine at position 19 (E19A), already in the entry
# T19 peptide: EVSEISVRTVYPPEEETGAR
# T20: GP5-20 (human, biotin at the N-terminus)
# T20 construct: GP5 with alanine at position 20 (R20A), already in the entry
# T20 peptide: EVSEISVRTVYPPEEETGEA
# T21: GP5-1 (human, biotin at the N-terminus)
# T21 construct: GP5 with alanine at position 1 (E1A), already in the entry
# T21 peptide: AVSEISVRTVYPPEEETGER
# T22: GP5-2 (human, biotin at the N-terminus)
# T22 construct: GP5 with alanine at position 2 (V2A), already in the entry
# T22 peptide: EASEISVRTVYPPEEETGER
# T23: GP5-3 (human, biotin at the N-terminus)
# T23 construct: GP5 with alanine at position 3 (S3A), already in the entry
# T23 peptide: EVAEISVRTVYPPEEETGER
# T24: GP5-4 (human, biotin at the N-terminus)
# T24 construct: GP5 with alanine at position 4 (E4A), already in the entry
# T24 peptide: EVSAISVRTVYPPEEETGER
# T25: GP5-5 (human, biotin at the N-terminus)
# T25 construct: GP5 with alanine at position 5 (I5A), already in the entry
# T25 peptide: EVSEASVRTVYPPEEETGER
# T26: GP5-6 (human, biotin at the N-terminus)
# T26 construct: GP5 with alanine at position 6 (S6A), already in the entry
# T26 peptide: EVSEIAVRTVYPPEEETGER
# T27: recombinant human GPA ectodomain (human, UniProt P02724 20-91)
# T27 construct: also called recombinant hGPA ECD; recGPA
# T27 sequence: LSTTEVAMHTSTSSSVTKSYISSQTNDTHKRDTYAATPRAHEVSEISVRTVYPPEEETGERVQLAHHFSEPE
# T28: purified human glycophorin A protein (Sigma, cat # G5017) (human, UniProt P02724 20-150)
# T28 construct: mature; also called Sigma hGPA; Sigma GPA
# T28 sequence (looked up): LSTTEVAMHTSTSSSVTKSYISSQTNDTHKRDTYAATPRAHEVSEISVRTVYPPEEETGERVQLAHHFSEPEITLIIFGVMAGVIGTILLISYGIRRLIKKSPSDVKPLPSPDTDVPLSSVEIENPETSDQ
# T29: asialo hGPA (desialylated human GPA) (human, UniProt P02724 20-150, desialylated)
# T29 construct: mature; also called asialo-GPA
# T29 sequence (looked up): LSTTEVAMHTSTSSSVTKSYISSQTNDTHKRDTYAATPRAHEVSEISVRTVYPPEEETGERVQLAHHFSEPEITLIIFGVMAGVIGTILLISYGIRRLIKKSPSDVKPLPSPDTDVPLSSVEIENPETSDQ
# Tests used:
# [1] = target: T1, human glycophorin A in the red blood …; test: FACS on RBC of huGPA/HemA transgenic mice (muTGRBC), 1E+6 RBC/mL, scFv titrated
# [2] = target: T2, GP7; test: peptide ELISA, summary of Table 23
# Source text: (§1) These peptides were attached to the surface of a streptavidin coated plate via a biotin moiety that was present at the N-terminus of each peptide.
# [3] = target: T3, GP10; test: peptide ELISA, summary of Table 23
# Source text: as §1
# [4] = target: T4, GP11; test: peptide ELISA, summary of Table 23
# Source text: as §1
# [5] = target: T5, GP12; test: peptide ELISA, summary of Table 23
# Source text: as §1
# [6] = target: T6, GP13; test: peptide ELISA, summary of Table 23
# Source text: as §1
# [7] = target: T7, GP5-7; test: ELISA, biotin-peptide on streptavidin plate, Fab 0.5 ug/ml
# [8] = target: T8, GP5-8; test: as above
# [9] = target: T9, GP5-9; test: as above
# [10] = target: T10, GP5-10; test: as above
# [11] = target: T11, GP5-11; test: as above
# [12] = target: T12, GP5-12; test: as above
# [13] = target: T13, GP5-13; test: as above
# [14] = target: T14, GP5-14; test: as above
# [15] = target: T15, GP5-15; test: as above
# [16] = target: T16, GP5-16; test: as above
# [17] = target: T17, GP5-17; test: as above
# [18] = target: T18, GP5-18; test: as above
# [19] = target: T19, GP5-19; test: as above
# [20] = target: T20, GP5-20; test: as above
# [21] = target: T21, GP5-1; test: as above
# [22] = target: T22, GP5-2; test: as above
# [23] = target: T23, GP5-3; test: as above
# [24] = target: T24, GP5-4; test: as above
# [25] = target: T25, GP5-5; test: as above
# [26] = target: T26, GP5-6; test: as above
# [27] = target: T27, recombinant human GPA ectodomain; test: SPR, IgG
# [28] = target: T28, purified human glycophorin A protein …; test: ELISA, hGPA
# Procedure: (§2) Hybridomas were generated from the spleen cells of these mice and these hybriomas were screened first by fluorescence activated cell sorting (FACS) against isolated human and monkey (Cynomolgus monkey and Rhesus monkey) red blood cells (RBC) and then by ELISA against purified human glycophorin A protein (GPA). Isolated RBC were prepared from whole blood from normal human, cynomolgus monkey, and beagle dog, were anticoagulant with sodium heparin (Bioreclamation). 2-3 mL of whole blood was loaded gently on the top of 3 mL Ficoll Plus (Sigma Aldrich) then centrifuged at 500 g for 20 min at room temperature (RT). The RBC pellets were washed 3 times with 10 mL of PBS, and centrifuge 400 g for 10 min at RT. RBC pellets were re-suspended in PBS at the same total volume as the original blood volume to achieve the same RBC cell density as in whole blood and stored at 4° C. Purified human glycophorin A protein was obtained from Sigma Aldrich and coated on ELISA plates at 2 ug/ml. Binding of antibodies to human GPA was detected using appropriate secondary antibodies using methods well known in the art.
# [29] = target: T1, human glycophorin A in the red blood …; test: FACS, hu RBC
# Procedure: as §2
# [30] = target: T30, dog red blood cells (dog); test: FACS, dog RBC
# T30 construct: also called dog RBC
# [31] = target: T31, Cynomolgus monkey glycophorin A on Cynomolgus monkey red blood cells (Cynomolgus monkey); test: FACS, Cyno RBC
# T31 construct: whole, on cells; also called Cyno RBC; Cyno GPA
# Procedure: as §2
# [32] = target: T28, purified human glycophorin A protein …; test: ELISA, purified IgG
# Procedure: (§3) The “Sigma GPA” is a crude preparation of human GPA extracted from human red blood cells and is therefore representative of the highly glycosylated form of the native protein.
# (§4) EC 50 values were determined from a dilution curve of the antibody. Sigma GPA is partially purified GPA extracted from human red blood cells and purchased from Sigma Chemical Company (cat # G5017), asialo hGPA is human GPA that was desialylated and ECD is the recombinantly expressed ectodomain which is the extracellular portion of GPA.
# [33] = target: T29, asialo hGPA (desialylated human GPA); test: ELISA, purified IgG
# Procedure: as §3, §4
# [34] = target: T27, recombinant human GPA ectodomain; test: ELISA, purified IgG
# Procedure: as §3, §4
binding result [2],binding result [3],binding result [4],binding result [5],binding result [6],binding signal (ELISA) [7],binding signal (ELISA) [8],binding signal (ELISA) [9],binding signal (ELISA) [10],binding signal (ELISA) [11],binding signal (ELISA) [12],binding signal (ELISA) [13],binding signal (ELISA) [14],binding signal (ELISA) [15],binding signal (ELISA) [16],binding signal (ELISA) [17],binding signal (ELISA) [18],binding signal (ELISA) [19],binding signal (ELISA) [20],binding signal (ELISA) [21],Binder,also measured
–,–,–,–,–,–,–,–,–,–,–,–,–,–,–,–,–,–,–,–,"TPP-7792 scFv (scFv, as m101 (tag, order, linker)) scFv: DIQLTQSPSFLSASVGDRVTITCRASSSVRYIYWFQQKPGKAPKLLIYATSFRQSGVPSRFSGSGSGTEYTLTISSLQPEDFATYYCHQRNSFPYTFGQGTKLEIKEVQLVQSGAEVKKPGASVKVSCKASGYTFTTYAIHWVRQAPGQGLEWMGYINPSSGYTRYNPKFKGRVTMTRDKSTSTAYMELRSLRSDDTAVYYCWTGTRDYWGQGTTVTVSS",EC50 (read off the curve) [1]: ~20 µg/mL
no binding,no binding,no binding,no binding,no binding,6700,6790,6810,5910,1,6450,6570,1280,6720,6540,6870,6400,6470,6440,6210,"TPP-7790 Fab (Fab, V domains shown, Tested as Fab with a 6xHIS tag) VH: EVQLVQSGAEVKKPGASVKVSCKASGYTFTTYAIHWVRQAPGQGLEWMGYINPSSGYTRYNPKFKHRVTMTRDKSTSTAYMELRSLRSDDTAVYYCWTGTRDYWGQGTTVTVSS VL: DIQLTQSPSFLSASVGDRVTITCRASSSVRYIYWFQQKPGKAPKLLIYATSFLQSGVPSRFSGSGSGTEYTLTISSLQPEDFATYYCHQRNSFPYTFGQGTKLEIK",binding signal (ELISA) [22]: 6360; binding signal (ELISA) [23]: 6680; binding signal (ELISA) [24]: 6540; binding signal (ELISA) [25]: 6270; binding signal (ELISA) [26]: 6520
no binding,no binding,no binding,no binding,no binding,6690,6700,7270,6210,2,6790,6960,2670,7250,6680,7410,7150,6980,7170,6800,"TPP-7792 Fab (Fab, V domains shown, Tested as Fab with a 6xHIS tag) VH: EVQLVQSGAEVKKPGASVKVSCKASGYTFTTYAIHWVRQAPGQGLEWMGYINPSSGYTRYNPKFKGRVTMTRDKSTSTAYMELRSLRSDDTAVYYCWTGTRDYWGQGTTVTVSS VL: DIQLTQSPSFLSASVGDRVTITCRASSSVRYIYWFQQKPGKAPKLLIYATSFRQSGVPSRFSGSGSGTEYTLTISSLQPEDFATYYCHQRNSFPYTFGQGTKLEIK",binding signal (ELISA) [22]: 6700; binding signal (ELISA) [23]: 7370; binding signal (ELISA) [24]: 6630; binding signal (ELISA) [25]: 7400; binding signal (ELISA) [26]: 6660
–,–,–,–,–,–,–,–,–,–,–,–,–,–,–,–,–,–,–,–,"13G7G1/C3 (antibody, V domains shown, as m8; also called TPP-3423) VH: RVQLQQSGAELARPGASVKMSCKASGYTFTNYAMHWVKQRPGQGLEWIGYINPKSDNTNYNQKFKDKATLTTDKSSATAYMQLSSLTSDDSAVYYCQTGTRDYWGQGTTLTVSS VL: HIVLTQSPAIMSASPGEKVTIFCSASSSITYVYWFQQKPGTSPKLWIYSTSSLPSGVPARFSGSGSGTSYSLTISRMEAEDAATYYCHQRNSYPFTFGSGTKLEIK",Kd [27]: 5.3 nM; koff [27]: 0.000405 s⁻¹; kon [27]: 76400 M⁻¹ s⁻¹; t½ [27]: 28.5 min; EC50 [28]: 0.402 nM; FACS signal [29]: 2880 relative flourescence units; FACS signal [30]: 1.14 relative flourescence units; FACS signal [31]: 294 relative flourescence units; EC50 [32]: 1.45 nM; EC50 [33]: 1.24 nM; EC50 [34]: 1.43 nM
